# From patent US20210380714A1
# Numbering of substitutions follows the chain as printed.
# B1: 158.3 (antibody, V domains shown)
# VH: QVQLQESGPGLVKPSETLSLTCTVSGGSIISHYWSWIRQPPGKGLEWIGYIYYSGSTNYNPSLKSRVTISVDTSKNQFSLKLTSVTAADTAVYYCARDGWSAFDYWGQGTLVTVSS
# VL: DIQMTQSPSSLSASVGDRVTITCRASQGIRNALGWYQQKPGKAPKRLIYAASSLQSGVPSRFSGSGSGTEFTLTISSLQPEDFATYYCLQHNSYPRTFGQGTKVEIRR
# B2: 151 (antibody, V domains shown)
# VH: B1 VH with I30S, H32Y, T83S, D98V, G99D, W100Y, S101K, Y105I, L111M
# VL: DIQMTQSPSSLSASVGDRVTITCRASQGIRNDLHWYQQKPGKAPKRLIYAASSLQSGVPSRFSGSGSGTEFTLTISSLQPEDFATYYCLQHYSYPWTFGQGTKVEIK
# B3: 1.33.1 (antibody, V domains shown)
# VH: QVQLQESGPGLVKPSQTLSLTCTVSGGSISGDGHFWSWIRQHPGKGLEWIGYIYYSGSTYYNPSLKSRVTISVDTSKNQFSLKLSSVTAADTAVYYCARLRGGYKFDYWGQGTLVTVSS
# VL: DIVMTQTPLSLSVAPGQPASISCQSSLSLQHSNGKTYLYWYLQKPGQPPQLLIYEVSNRFSGVPDRFSGSGSGTDFTLKISRVEAEDVGIYYCMQSKQLPCSFGQGTKLEIK
# B4: Ab237 (Hu-anti-huMesothelin-2.37-IgG1) (antibody, V domains shown)
# VH: QVQLQESGPGLVKPSQTLSLTCTVSGGSINNNNYYWTWIRQHPGKGLEWIGYIYYSGSTFYNPSLKSRVTISVDTSKTQFSLKLSSVTAADTAVYYCAREDTMTGLDVWGQGTTVTVSS
# VL: DIQMTQSPSSLSASVGDRVTITCRASQSINNYLNWYQQKPGKAPTLLIYAASSLQSGVPSRFSGSRSGTDFTLTISSLQPEDFAAYFCQQTYSNPTFGQGTKVEVK
# What was measured:
# [1] = target: recombinant human soluble MSLN (rHuMSLN sol.) (human) (UniProt Q13421); experiment: Biacore, soluble human MSLN
# [2] = target: native human MSLN expressed on the cell surface (N87 / NCI-N87 tumor cells) (human) (UniProt Q13421); experiment: KinExA, native hu MSLN on cells
# [3] = target: native human MSLN expressed on the cell surface (N87 / NCI-N87 tumor cells) (human) (UniProt Q13421); experiment: KinExA equilibrium binding to N87 tumor cells expressing native human MSLN
# [4] = target: native human MSLN expressed on the cell surface (N87 / NCI-N87 tumor cells) (human) (UniProt Q13421); experiment: KinExA on N87 cells compared with Biacore on rHuMSLN sol.
# [5] = target: recombinant human soluble MSLN (rHuMSLN sol.) (human) (UniProt Q13421); experiment: Biacore; 237 captured on the sensor chip, rHuMSLN sol. in solution
# Chain of recombinant human soluble MSLN (rHuMSLN sol.) (human) (Q13421 296-606 limits assumed): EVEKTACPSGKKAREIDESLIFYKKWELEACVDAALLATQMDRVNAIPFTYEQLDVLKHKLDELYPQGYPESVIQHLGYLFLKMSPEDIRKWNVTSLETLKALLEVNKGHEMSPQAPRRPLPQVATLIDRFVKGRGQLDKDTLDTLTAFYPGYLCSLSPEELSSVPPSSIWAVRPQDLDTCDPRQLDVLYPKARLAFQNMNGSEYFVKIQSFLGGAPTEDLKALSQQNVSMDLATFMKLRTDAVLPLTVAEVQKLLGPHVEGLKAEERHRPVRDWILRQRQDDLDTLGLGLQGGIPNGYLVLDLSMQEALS
# Chain of native human MSLN expressed on the cell surface (N87 / NCI-N87 tumor cells) (human) (Q13421 296-606 limits assumed): as above
Binder,Kd [1],Kd [2],Kd [3],fold better binding than to soluble MSLN [4],Kd [5]
B1,2.4 nM,0.0122 nM,,,
B2,17.4 nM,0.03 nM,,,
B3,0.965 nM,,,,
B4,,,0.0035 nM,30 fold,0.097 nM
